The results in this text go back to patent publication US20170312350A1 (IMMATICS BIOTECHNOLOGIES, published 2017).

This test deals with MHC/IGF2BP3-001 complex on IGF2BP3-001-loaded target cells (human). Put plainly: cell-based or functional assay.

B1: TCR R10P1A7 (TCR, V domains shown)
V domain 1: GEDVEQSLFLSVREGDSSVINCTYTDSSSTYLYWYKQEPGAGLQLLTYIFSNMDMKQDQRLTVLLNKKDKHLSLRIADTQTGDSAIYFCAESKETRLMFGDGTQLVVKP
V domain 2: GAVVSQHPSWVICKSGTSVKIECRSLDFQATTMFWYRQFPKQSLMLMATSNEGSKATYEQGVEKDKFLINHASLTLSTLTVTSAHPEDSSFYICSARAGGHEQFFGPGTRLTVLE
As for B1, the “EC50 (target peptide titration, IFNγ release)” value is about 1 nM.
